Data: patent US5854005A, “Platelet blockade assay” (Mount Sinai School of Medicine, priority 1996, dated 1998)
Values joined by “and” are separate entries in the source; they are usually repeats but may differ in a detail not shown here. Equal values may be shown once.

Experiments:
GPIIb/IIIa receptor [1] = target: T1, GPIIb/IIIa receptor (Homo sapiens, UniProt P05106+P08514); assay: Fibrinogen-coated bead agglutination whole blood assay with activating peptide; type: cell-based; design: key to agglutination assay result: the assay remained positive (i.e., 1-4+); The assay became negative (i.e., O+); conditions: for agglutination assay result: 2 μM activating peptide
T1 construct: GP IIb/IIIa receptor proteins, which are found on the cell surface of platelets; endogenous in cells; host or cells: platelets in citrated whole blood of donors
Procedure: Blood (9 volumes) is drawn from a patient by syringe and placed into standard blue-top tube containing sodium citrate (1 volume of 3.8% sodium citrate). Alternatively, blood may be drawn by Vacutainer directly into a blue-top tube. The tube is then inverted to mix the anticoagulant with the whole blood. Then 70 μl of this mixture is added to an assay tube containing 100 μl of buffer (0.15M NaCl, 0.5 mM CaCl2, 0.01M HEPES, pH 7.4), 10 μl of well-mixed fibrinogen coated beads prepared by the method of Example 1, and 5-10 µl of isoSer-Phe-Leu-Leu-Arg-Asn (SEQ ID NO:3).
The assay tube is then placed on a rocker and rocked at 20 cpm at room temperature for two minutes. The tube is removed from the rocker, held vertically to allow the blood to drain and viewed. If less than 80% of GPIIb/IIIa receptor blockade has been achieved in the patient's blood, agglutinated beads are readily seen in the streak marking where the blood tilted back and forth.
(§1) Purified peak I-2 fibrinogen is coupled to 3 μm, blue carboxylated beads (obtained from Polysciences, Inc.) using a water soluble carbodiimide (EDC) by the method of Example 1. The assay is conducted by adding to a 12×75 mm glass test tube: 100 μl of buffer, 20 μl of beads (2.5% slurry), and 5 μl of isoSer-Phe-Leu-Leu-Arg-Asn. Blood is collected into citrate anticoagulant and 70 μl of the whole blood is added to the test tube, which is then capped, placed on a rocking platform, and rocked at 16 cycles/min. When normal blood was tested using 1 or 2 μM activating peptide, a 4+ agglutination endpoint was easily observed in all donors (n=10) by 2 min. […] Using 2 μM activating peptide, the assay remained positive (i.e., 1-4+) at c7E3 Fab concentrations of 0.8 (n=1), 1.2 (n=1), 1.5 (n=3), and 1.8 (n=2) μg/ml, corresponding to GPIIb/IIIa receptor blockade of 56%; 77%; 68, 68, and 82%; and 66 and 73%. The assay became negative (i.e., O+) at c7E3 Fab concentrations of 1.2 (n=1), 1.5 (n=1), 1.8 (n=3) and 2.4 (n=2) μg/ml, corresponding to GPIIb/IIIa receptor blockade of 77%; 92%; 83, 88 and 94%; and 88 and 89%. […] The percentage of receptor blockade was assayed by radiolabeled 7E3 binding as reported in Coller et al., N.Y. Acad. Sci., 614:193 (1993).

aminopeptidase M [2] = conditions: in the presence of aminopeptidase M; cited from earlier work
thrombin receptor = conditions: cited from earlier work
aminopeptidase M [3] = conditions: incubated in plasma; cited from earlier work
GPIIb/IIIa receptor [4] = target: T1, GPIIb/IIIa receptor; assay: GPIIb/IIIa receptor blockade assayed by radiolabeled 7E3 binding
Procedure: as §1

GPIIb/IIIa receptor [5] = target: T1, GPIIb/IIIa receptor; conditions: cited from earlier work
[6] = blood pretreated with c7E3 Fab at 5 doses between 0.8-3.0 μg/ml for about 10 minutes at 22° C.

## CC(=O)Oc1ccccc1C(=O)O [Aspirin, reference compound]
GPIIb/IIIa receptor [1]; Aspirin 1 mM
  effect on the agglutination assay results: did not appreciably affect the results

## CC(C)C[C@@H](N)[C@H](O)C(=O)N[C@H](C(=O)N[C@H](C(=O)N[C@@H](CC(=O)O)C(=O)O)C(C)C)C(C)C [amastatin]
Aminopeptidase M [2]
  effect on platelet aggregation: enhance platelet aggregation

## T-11: eleven amino acid peptide lacking the three C-terminal amino acids of T-14 (SFLLRNPNDKY)
Thrombin receptor
  platelet activation activity relative to T-6: ~ 20%
  potency relative to T-14: twice as potent as T-14
Aminopeptidase M [3]
  ability to induce aggregation after incubation in plasma: lose their ability to induce aggregation

## T-14: fourteen amino acid peptide corresponding to the new N-terminus of the cleaved thrombin receptor protein (SFLLRNPNDKYEPF)
Thrombin receptor
  platelet aggregating activity: capable of aggregating platelets directly
Aminopeptidase M [3]
  ability to induce aggregation after incubation in plasma: lose their ability to induce aggregation

## c7E3 Fab: GPIIb/IIIa receptor blocking agent, monoclonal antibody c7E3 Fab
GPIIb/IIIa receptor [1]; c7E3 Fab 0.8 μg/ml
  agglutination assay result: positive
GPIIb/IIIa receptor [1]; c7E3 Fab 2.4 μg/ml
  agglutination assay result: negative
GPIIb/IIIa receptor [1]; [6]
  agglutination of beads: elimination of agglutination
GPIIb/IIIa receptor [4]; [6]
  GPIIb/IIIa receptor blockade (trend): increasing GPIIb/IIIa receptor blockade
GPIIb/IIIa receptor [4]; c7E3 Fab 0.8 μg/ml, samples with positive agglutination assay
  GPIIb/IIIa receptor blockade: 56%
GPIIb/IIIa receptor [4]; c7E3 Fab 1.2 μg/ml, samples with negative agglutination assay
  GPIIb/IIIa receptor blockade: 77%
GPIIb/IIIa receptor [4]; c7E3 Fab 1.2 μg/ml, samples with positive agglutination assay
  GPIIb/IIIa receptor blockade: 77%
GPIIb/IIIa receptor [4]; c7E3 Fab 1.5 μg/ml, samples with negative agglutination assay
  GPIIb/IIIa receptor blockade: 92%
GPIIb/IIIa receptor [4]; c7E3 Fab 1.5 μg/ml, samples with positive agglutination assay
  GPIIb/IIIa receptor blockade: 68% and 82%
GPIIb/IIIa receptor [4]; c7E3 Fab 1.8 μg/ml, samples with negative agglutination assay
  GPIIb/IIIa receptor blockade: 83% and 88% and 94%
GPIIb/IIIa receptor [4]; c7E3 Fab 1.8 μg/ml, samples with positive agglutination assay
  GPIIb/IIIa receptor blockade: 66% and 73%
GPIIb/IIIa receptor [4]; c7E3 Fab 2.4 μg/ml, samples with negative agglutination assay
  GPIIb/IIIa receptor blockade: 88% and 89%
GPIIb/IIIa receptor [5]; blockade of about 80% or more of GPIIb/IIIa receptors, often to times greater than thirty minutes
  bleeding times: prolongs the bleeding times
GPIIb/IIIa receptor [5]; blockade of about 80% or more of an individual's GPIIb/IIIa receptors
  platelet aggregation: abolishes platelet aggregation
GPIIb/IIIa receptor [5]; patient with a platelet count greater than 900,000/μl, standard dose
  antithrombotic effect: virtually no antithrombotic effect

## heparin [reference compound]
GPIIb/IIIa receptor [1]; heparin 3.5 U/ml
  effect on the agglutination assay results: did not appreciably affect the results
